Measurements taken from publication PMC8552709, “Mechanistic Insights into the Capsule-Targeting Depolymerase from a Klebsiella pneumoniae Bacteriophage” (Microbiology Spectrum, 2021).

Biological target: the molecule itself
Experiment: SEC; HiLoad 16/600 Superdex 200-pg column, 25 mM Tris (pH 8.0), 200 mM NaCl; peak checked by reducing SDS-PAGE

B1: DpK2 (gp02), capsule depolymerase / tailspike protein of Klebsiella phage RAD2 (enzyme, UniProt P0DTN8 1-907, looked up)
chain: MALYREGKAAMAADGTVTGTGTKWQSSLSLIRPGATIMFLSSPIQMAVVNKVVSDTEIKAITTSGAVVASTDYAILLSDSLTVDGLAQDVAETLRHYQSQETVIADAVEFFKSFDFDSLQNLANQIKADSESAESSAAAAAASESKAKTSEDNAKSSENAAKNSEVAAETTRDQIQQIIDNAGDQSTLVVLAQPDGFDSIGRVSSFAALRNLKPKKSGQHVLLTSYYDGWAAENKMPTGGGEFISSIGTATDDGGYIAAGPGYYWTRVVNNNSFTAEDFGCKTTATPPPNFNVLPAELFDNTAMMQAAFNLAISKSFKLNLSTGTYYFESSDTLRITGPIHIEGRPGTVFYHNPSNKANPKTDAFMNISGCSAGRISSINCFSNSYLGKGINFDRSVGDNRKLVLEHVYVDTFRWGFYVGEPECINQIEFHSCRAQSNYFQGIFIESFKEGQEYGHSAPVHFFNTICNGNGPTSFALGATYKTTKNEYIKVMDSVNDVGCQAYFQGLSNVQYIGGQLSGHGSPRNTSLATITQCNSFIIYGTDLEDINGFTTDGTAITADNIDAIESNYLKDISGAAIVVSSCPGFKIDSPHIFKIKTLSTIKLMNNTYNYEIGGFTPDEALKYNVWDANGLATNRISGVIHPRLVNSRLGINSVAFDNMSNKLDVSSLIHNETSQIVGLTPSTGSNVPHTRKMWSNGAMYSSTDLNNGFRLNYLSNHNEPLTPMHLYNEFSVSEFGGSVTESNALDEIKYIFIQTTYANSGDGRFIIQALDASGSVLSSNWYSPQSFNSTFPISGFVRFDVPTGAKKIRYGFVNSANYTGSLRSHFMSGFAYNKRFFLKIYAVYNDLGRYGQFEPPYSVAIDRFRVGDNTTQMPSIPASSATDVAGVNEVINSLLASLKANGFMSS
notes: DpK2, product of gp02 of Klebsiella phage RAD2 (genome GenBank MW655991); 98 kDa; the open reading frame was cloned between NcoI and XhoI of pPROEX htb; residues 191 to 906 are modelled in the cryo-EM structure; Homotrimer; The forward primer ([residues removed]) reads M-G-A-L-Y-R-E-G-K, so the NcoI site may add a glycine after the first methionine; no removal of the His tag is described; also …
With B1 the “stoichiometry N” value was 3.
